Data on one molecule can be found in patent publication US20040024191, “Multimerized DBH enhancer domains” (published 2004).

The target in this series is His6-Phox2a (1-149) (Mus musculus, UniProt Q62066 Q62066:1-149). The series can be described thus: footprint; DNase I footprint. To be noted: tags: N-terminal His6, pET15b, E. coli BL21(DE3); label: 32P.
His6-Phox2a (1-149), sequence (Q62066 1-149, one chain of several): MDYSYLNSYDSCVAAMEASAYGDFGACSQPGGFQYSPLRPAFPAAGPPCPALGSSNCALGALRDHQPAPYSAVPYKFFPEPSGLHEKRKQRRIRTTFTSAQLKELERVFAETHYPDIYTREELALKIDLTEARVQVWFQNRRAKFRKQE

B1: PBS3 (dsDNA)
DNA 1: GAGGGAAAATTGGATTCCCCG
DNA 2: CGGGGAATCCAATTTTCCCTC
In the case of B1, the binding result is given as “binds”.
